Results as given in the supplement of paper PMC9170038.

Test system: MS2 coat protein
Test: apparent KD of MS2 coat protein; designed switch direction (-1 OFF switch, 1 ON switch): -1; higher = weaker reporter binding
Outline: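 Three titration conditions were used: no input, 200 uM small-molecule ligand, and an oligonucleotide input. In each, SNAP-549-labelled MS2 coat protein was raised from 0.7 or 1.5 nM, doubling, to 3 µM over designed RNA switches transcribed on Illumina chips by stalled E. coli RNA polymerase. Curve fits of normalised cluster fluorescence gave values whose per-design median over clusters is the apparent KD.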

[1] = Eterna round: R95, input ligand: FMN 200 uM
[2] = Eterna round: R95, input ligand: microRNA oligo, concentration not stated
[3] = Eterna round: R95, input ligand: none
[4] = input ligand: microRNA oligo, concentration not stated

Sequence	apparent KD of MS2 coat protein (input ligand: FMN 200 uM) [nM]	apparent KD of MS2 coat protein (input ligand: none) [nM]	apparent KD of MS2 coat protein [2] [nM]	further results
GUAUUUUGAGGAUAUACAUGAGGAUCACCCAUGUGUCGUAGCGCCAGCCUUAAUACGUGUAGAAGGCAGAAUGU [Eternabot (L1) Solution 75] (Eterna round: R97, puzzle: Exclusion 3)	20	34	–	–
GCUUUUCUUUUCCUUUCUUACAUGAGGAUCACCCAUGUUUCUUGUCCUGCUCGCGUUGCUCGUCUGUCUGUCUGUUG [salish99_TOv1_r3_080] (puzzle: Sensor v3, turn-off variant 1)	–	–	24.3	apparent KD of MS2 coat protein [1]: 28.7 nM; apparent KD of MS2 coat protein [3]: 31.2 nM
ACCAAGCUAUGCACGUCUGACAUGAGGAUCACCCAUGUAGCCGGUCUCGGAAGGAGACAGGCUCCAGGUGGCUCAGA [Eternabot (Original) Solution 37] (Eterna round: R97, puzzle: Sensor, turn-off variant 1)	683	667	–	–
GUGGUACAUGAGGAUCACCCAUGUUAGGAUAUCGCGUGAGGUUUUACUUCCGCACACGCGAGAAGGGACGUCUU (puzzle: Exclusion 1)	–	–	41.4	–
GAUACACAUGAGGAUCACCCAUGUGAGGAUAUGCGUACGUUGUCCGUAGGCGACGUGCGCAGAAGGCGCUUGGU [Mat - Mod of JL D98] (puzzle: Exclusion 1)	–	–	57.3	–
GGACAGCGAGGAUAUACGUGUACGUUAUCCUCUAUGGGUCAACAUGAGGAUCACCCAUGUAGAAGGCGCAUAAU [Mabima] (puzzle: Exclusion 2)	–	–	18.7	–
GGGCUUCAAGUGAGGAUAUCUACGCAGUUGAAGCGAGAGAAGGCACAUGAGGAUCACCCAUGUAUAGAAGAAGA [Rausmausis] (puzzle: Brourd's mod of Exclusion 4)	–	–	26.5	apparent KD of MS2 coat protein [1]: 116 nM; apparent KD of MS2 coat protein [3]: 29.1 nM
GUAAUUAUAUAGGAUAUCGAACUUAUAAUUUAACGAGAAGGAUGAACAUGAGGAUCACCCAUGUGGUAUCAUGG [JL-ex6-3.07] (puzzle: Exclusion 6)	–	–	207	apparent KD of MS2 coat protein [1]: 131 nM; apparent KD of MS2 coat protein [3]: 284 nM
GAUUAUGCGAGCUUUAGGGACAUGAGGAUCACCCAUGUUCGUCUUAUUAAUCUAGGUACGCUGACAUACCUAAAUCU [JMF 98] (puzzle: Sensor v3, turn-off variant 1)	–	–	30	apparent KD of MS2 coat protein [1]: 21.6 nM; apparent KD of MS2 coat protein [3]: 20.6 nM
GAAAAGGUAGAGGAUAUUUCAGAUCAAAGCUGCAAAGAAGGCUGCACAUGAGGAUCACCCAUGUGGUCUUAAAA [Mod of Quesina 8 - Jieux - Exclusion 6] (Eterna round: R97, puzzle: Exclusion 6)	62.3	20.9	–	–
CAACUGUGAGGAUAUGGUGAGUAGUGCCUGAGCGCUGCUCACCAGAAGGCACAUGAGGAUCACCCAUGUAUGAC [JL-ex4-2.02 denovo] (puzzle: Exclusion 4)	–	–	38.3	–
AUCAUGUGAGGAUAUGUGAUCAACCUUCUAUAUAGAUGAUGACAGAAGGCACAUGAGGAUCACCCAUGUAGAUC [Ex4 - 3 - 20] (puzzle: Exclusion 4)	–	–	45.1	–
AGAGAAUACUCAGGAUAUCUGAAUAGAAAGAGAAGAGAAGGGAGACAUGAGGAUCACCCAUGUGAAGUCUUGAGGCUGCAUGGA [Prohibition 25 - Jieux - Exclusion NG 1] (Eterna round: R96, puzzle: Exclusion NG 1)	83.5	106	–	apparent KD of MS2 coat protein [4]: 145 nM
AGUUCGCAGAGAGGAUAUAUAGGGUUACGGCCUAUAGAAGGUUCACGUUAGCCGCAACAUGAGGAUCACCCAUGUGCUCCGCGA [Eternabot solution 35] (Eterna round: R96, puzzle: Exclusion NG 1)	27.5	29.6	–	apparent KD of MS2 coat protein [4]: 20.9 nM
CCAGCGUAUGUGAGGAUAUGCUGGUCCUUGGAUCAGCAGAAGGCACAUGAGGAUCACCCAUGUGAGAGCGUUGG [JL bmx4 3.37] (Eterna round: R96, puzzle: Brourd's mod of Exclusion 4)	187	30.4	–	apparent KD of MS2 coat protein [4]: 25.6 nM
GAUUAUGCGAGCUUUAGGGACAUGAGGAUCACCCAUGUUCGUCUUAUUGGUCUAGGUGCACUAACAUACCUAAAUCU [JMF 36] (puzzle: Sensor v3, turn-off variant 1)	–	–	33.7	apparent KD of MS2 coat protein [1]: 22.3 nM; apparent KD of MS2 coat protein [3]: 23.6 nM

Sequence	apparent KD of MS2 coat protein (input ligand: FMN 200 uM) [nM]	apparent KD of MS2 coat protein (input ligand: none) [nM]	apparent KD of MS2 coat protein [2] [nM]	further results
GUAAACGAAGAGGAUAUUUGAUAUCAUAGCUUCAAAGAAGGCUUCACAUGAGGAUCACCCAUGUGAUCUUCAAG [Mat - Exclusion 6 - JL Mod - D21] (Eterna round: R97, puzzle: Exclusion 6)	199	34.8	–	–
AGAGAAUAGUCAGGAUAUGUGAAUAGAUAGAGAACAGAAGGGACACAUGAGGAUCACCCAUGUGAAGUCUUGAGGCUGCGUGGA [Prohibition 21 - Jieux - Exclusion NG 1] (Eterna round: R96, puzzle: Exclusion NG 1)	22.1	20.3	–	apparent KD of MS2 coat protein [4]: 17.5 nM
UUUUCGUCAGGAUAUUCUACUUAUUACAUGAGGAUCACCCAUGUGUAUGUACAAGGGUGUGAAGAAGGGACUUUUU [LRO-Excl5-10-mod A17d by Omei] (Eterna round: R97, puzzle: Exclusion 5)	305	1070	–	–
UUUUUAUAUGAAGGAUAUACUUAACAUGAGGAUCACCCAUGUGGUGUUGUGAGUGAGUGAGUUUAGUAGAAGGUCAAUUAGUAU [JMF's solution 101] (Eterna round: R96, puzzle: Exclusion NG 2)	1110	295	–	apparent KD of MS2 coat protein [4]: 253 nM
ACCUCACAUGAGGAUCACCCAUGUCAGGAUAUACAAACCGUGAUAAGACACGGUCGUAGUAGAAGGGACUAUGG [Xerereonte] (puzzle: Exclusion 1)	–	–	98.8	–
CAGUACUGAGGAUAUACAUGAGGAUCACCCAUGUGUUCCAGCUAGGUAACUAGCAAAAGUAGAAGGCAGUACUG [salish99_ex3_r3_096x] (puzzle: Exclusion 3)	–	–	25.7	–
CAGUACUGAGGAUAUACAUGAGGAUCACCCAUGUGUUCCAGCUAGGAAUCUAGCAAAAGUAGAAGGCAGUACUG [salish99_ex3_r3_094x] (puzzle: Exclusion 3)	–	–	25.3	–
ACAGUUCUGCAAGGAUAUCGUCCUAGUUUGUUUCGAGAAGGUGCUUUUGUUUUUUCUUUGUGUUGACAUGAGGAUCACCCAUGU [JR_ExcNG1_Sub052] (Eterna round: R96, puzzle: Exclusion NG 1)	20.3	28.7	–	apparent KD of MS2 coat protein [4]: 20.6 nM
CGCCGAGUGUUAGGAUAUUACAAGCAUAAGCGGUAAGAAGGAACAUGAGGAUCACCCAUGUACUGUCCCAUCGGGACAGGUUUC [Qule] (Eterna round: R96, puzzle: Exclusion NG 1)	292	76.8	–	apparent KD of MS2 coat protein [4]: 44.3 nM
GUGAGGUAAGGAUAUAGGAGAAAAGAUAAGGUAUGAGAGUUCUAGAAGGUACAUGAGGAUCACCCAUGUUAGGG [JR_Exclu4_Sub086] (puzzle: Exclusion 4)	–	–	257	–
CGGUGUAACGUAGGAUAUCAUCGCAACUGACGUUGAGAAGGACGACAUGAGGAUCACCCAUGUGAUUUCUCAAUAUUAUACAUC [Prohibition 85 - Jieux - Exclusion NG 1] (Eterna round: R96, puzzle: Exclusion NG 1)	69.6	19.6	–	apparent KD of MS2 coat protein [4]: 20.4 nM
UUUAGUUCAGGAUAUGUAGAUUUUAACAUGAGGAUCACCCAUGUAGAUCCUGAAUUAACUACAGAAGGGAACAUUC [Exclusion 5: 2:c] (puzzle: Exclusion 5)	–	–	20.9	–
GCCAGAGCAGGAUAUUGAUAAAUUCACAUGAGGAUCACCCAUGUCCAGCGAAAGCUGGAACGAGAAGGGCUCUGGC [Mat - Exclusion 5 - Eli mod - D87] (puzzle: Exclusion 5)	–	–	13.3	apparent KD of MS2 coat protein [1]: 11.7 nM; apparent KD of MS2 coat protein [3]: 13.7 nM
UUUCAUCAUGUAGGAUAUGUGUGGCGAAGCUAUACAGAAGGACAUGAGGAUCACCCAUGUUCUUGCGUCUGCGUACAGAUGCAA [14th something] (Eterna round: R96, puzzle: Exclusion NG 1)	348	43.3	–	apparent KD of MS2 coat protein [4]: 33.1 nM
GUGCAAUGAGGAUAUACGUAGGUGAAAAUCUGUGUGCUCCUACAUGAGGAUCACCCAUGUAGAAGGCAUGUCAC [LRO-Excl2-16] (puzzle: Exclusion 2)	–	–	16	–
GAUUGACAUGAGGAUCACCCAUGUGAGGAUAUCGGCCGGACCUUGUUAGCUUCCAUCGCGAGAAGGUACAUAGG [Exclusion 1 V34] (puzzle: Exclusion 1)	–	–	16.9	–
